Laboratory results as given in US20220110936A1, “PHARMACEUTICAL COMPOSITION FOR TREATMENT OF NEURODEGENERATIVE DISEASES OR DISEASES CAUSED BY ABNORMALITY OF RNA BINDING PROTEIN AND APPLICATIONS THEREOF” (Shanghai Institute of Organic Chemistry, Chinese Academy of …, priority 2019, published 2022).

System: hnRNP A1
Experiment: Immunoprecipitation/WB of hnRNP A1-Flag from HeLa cells with PARG added to the IP system
Type: biochemical, human
Protocol: The steps of HeLa cell culture and plasmid transfection are as described in Example 1. To increase the level of PARylation in HeLa cells after transfection with the plasmids described in 3.1.1, the cell culture medium was removed before collection, 500 μM hydrogen peroxide (diluted in PBS) was added to the cells followed by incubating for 10 min at 37° C. The stimulated HeLa cells can be used for subsequent experiments.
Cells treated according to 3.1.2 were lysed with the following lysis buffer: 25 mM Tris-HCl pH 7.4, 150 mM NaCl, 1% NP-40, 1 mM EDTA, 5% glycerol, protease inhibitor (Roche), 20 μM Olaparib (Selleck) and 8 μM ADP-HPD (Millopore). For enrichment of TDP-43 with HA tag, the lysate was added with HA antibody (Mouse anti-HA (Proteintech)) for overnight incubation at 4° C. followed by enrichment of primary antibody-sample complexes with Dynabeads® Protein G beads (Novex) for 2 hours at room temperature; for Flag-tagged hnRNP Al, the lysate was added directly to anti-FLAG® M2 Affinity Gel (Sigma) followed by incubation at 4° C. To ablate the polyribose moiety in vitro, 1μ purified PARG protein (Sigma) was added to a mixture of anti-FLAG® M2 Affinity Gel (Sigma) and cell lysate, and incubated for 1 h at 37° C. After incubation, the product was washed 3-5 times with lysis buffer, and added with 4×LDS sample buffer (Invitrogen) and boiled at 95° C. for subsequent studies. […]

B1: PARG protein: purified PARG protein (Sigma), poly(ADP-ribose) glycohydrolase (protein, UniProt Q86W56 1-976, looked up)
Poly(ADP-ribose) …: MNAGPGCEPCTKRPRWGAATTSPAASDARSFPSRQRRVLDPKDAHVQFRVPPSSPACVPGRAGQHRGSATSLVFKQKTITSWMDTKGIKTAESESLDSKENNNTRIESMMSSVQKDNFYQHNVEKLENVSQLSLDKSPTEKSTQYLNQHQTAAMCKWQNEGKHTEQLLESEPQTVTLVPEQFSNANIDRSPQNDDHSDTDSEENRDNQQFLTTVKLANAKQTTEDEQAREAKSHQKCSKSCDPGEDCASCQQDEIDVVPESPLSDVGSEDVGTGPKNDNKLTRQESCLGNSPPFEKESEPESPMDVDNSKNSCQDSEADEETSPGFDEQEDGSSSQTANKPSRFQARDADIEFRKRYSTKGGEVRLHFQFEGGESRTGMNDLNAKLPGNISSLNVECRNSKQHGKKDSKITDHFMRLPKAEDRRKEQWETKHQRTERKIPKYVPPHLSPDKKWLGTPIEEMRRMPRCGIRLPLLRPSANHTVTIRVDLLRAGEVPKPFPTHYKDLWDNKHVKMPCSEQNLYPVEDENGERTAGSRWELIQTALLNKFTRPQNLKDAILKYNVAYSKKWDFTALIDFWDKVLEEAEAQHLYQSILPDMVKIALCLPNICTQPIPLLKQKMNHSITMSQEQIASLLANAFFCTFPRRNAKMKSEYSSYPDINFNRLFEGRSSRKPEKLKTLFCYFRRVTEKKPTGLVTFTRQSLEDFPEWERCEKPLTRLHVTYEGTIEENGQGMLQVDFANRFVGGGVTSAGLVQEEIRFLINPELIISRLFTEVLDHNECLIITGTEQYSEYTGYAETYRWSRSHEDGSERDDWQRRCTEIVAIDALHFRRYLDQFVPEKMRRELNKAYCGFLRPGVSSENLSAVATGNWGCGAFGGDARLKALIQILAAAAAERDVVYFTFGDSELMRDIYSMHIFLTERKLTVGDVYKLLLRYYNEECRNCSTPGPDIKLYPFIYHAVESCAETADHSGQRTGT
- amount of endogenous TDP-43 protein co-precipitated with hnRNP A1 (added to the IP system): significantly reduced
- PARylation level of hnRNP A1 itself and PARylated proteins that interact with it (hydrogen peroxide-stimulated HeLa, added to the IP system for 1 h): significantly reduced
